The record followed here is article doi:10.1101/2021.08.20.457142.

B1: MKK6 D-site peptide / p38-alpha (MAPK14) L195A, full length (parent complex)
chain 1: SQSKGKKRNPGLKIPKEAFEQP
chain 2: MSQERPTFYRQELNKTVWEVPERYQNLSPVGSGAYGSVCAAFDTKTGHRVAVKKLSRPFQSIIHAKRTYRELRLLKHMKHENVIGLLDVFTPARSLEEFNDVYLVTHLMGADLNNIVKCQKLTDDHVQFLIYQILRGLKYIHSADIIHRDLKPSNLAVNEDCELKILDFGLARHTDDEMTGYVATRWYRAPEIMANWMHYNQTVDIWSVGCIMAELLTGRTLFPGTDHIDQLKLILRLVGTPGAELLKKISSESARNYIQSLAQMPKMNFANVFIGANPLAVDLLEKMLVLDSDKRITAAQALAHAYFAQYHDPDDEPVAEPYDQSFESRDFLIDEWKSLTYDEVISFVPPPLDQEEMES
B2: MKK7 D-site peptide (second D-site) / JNK1 alpha1 (MAPK8 isoform 1) L198A, full length (parent complex)
chain 1: SQPQRPRPTLQLPLANEAFEQP
chain 2: MSRSKRDNNFYSVEIGDSTFTVLKRYQNLKPIGSGAQGIVCAAYDAILERNVAIKKLSRPFQNQTHAKRAYRELVLMKCVNHKNIIGLLNVFTPQKSLEEFQDVYIVMELMDANLCQVIQMELDHERMSYLLYQMLCGIKHLHSAGIIHRDLKPSNIVVKSDCTLKILDFGLARTAGTSFMMTPYVVTRYYRAPEVIAGMGYKENVDLWSVGCIMGEMVCHKILFPGRDYIDQWNKVIEQLGTPCPEFMKKLQPTVRTYVENRPKYAGYSFEKLFPDVLFPADSEHNKLKASQARDLLSKMLVIDASKRISVDEALQHPYINVWYDPSEAEAPPPKIPDKQLDEREHTIEEWKELIYKEVMDLEERTKNGVIRGQPSPLAQVQQ

Variants of B1 are the subject of one experiment.
Consider chain 1 SQNKGKKRNPGLKIPKEAFEQP [chain 1 S3N], for which the screen value was 1.29 Z-score of the enrichment rate within one screen of 711 sequences.

As for chain 1 SQSVGKKRNPGLKIPKEAFEQP [chain 1 K4V], the screen value was 0.981 Z-score of the enrichment rate within one screen of 711 sequences.

For chain 1 SQSHGKKRNPGLKIPKEAFEQP [chain 1 K4H], the screen value is 0.888 Z-score of the enrichment rate within one screen of 711 sequences.

In the case of chain 1 SQSKGKKRNPGLKGPKEAFEQP [chain 1 I14G], the screen value was -1.29 Z-score of the enrichment rate within one screen of 711 sequences. The same measure, in the same setting: next, chain 1 SQSKGKKRNPGLKSPKEAFEQP [chain 1 I14S]: -1.38 Z-score of the enrichment rate within one screen of 711 sequences; chain 1 SQSKGKKRNPGLKIPDEAFEQP [chain 1 K16D]: -0.827 Z-score of the enrichment rate within one screen of 711 sequences. Same read-out and setting: next, chain 1 SQSKGKKRNPGLKIPIEAFEQP [chain 1 K16I]: 1.8 Z-score of the enrichment rate within one screen of 711 sequences.

In the case of chain 1 SQSKGKKRNPGFKIPKEAFEQP [chain 1 L12F], the screen value is -0.853 Z-score of the enrichment rate within one screen of 711 sequences. The same measure, in the same setting: the figure for chain 1 SQSKGKKRNPGKKIPKEAFEQP [chain 1 L12K] is -1.3 Z-score of the enrichment rate within one screen of 711 sequences; for chain 1 SQSKGKKRHPGLKIPKEAFEQP [chain 1 N9H] it is 1.51 Z-score of the enrichment rate within one screen of 711 sequences; for chain 1 SQSKAKARNPGLKIPKEAFEQP [chain 1 G5A, chain 1 K7A] it is 0.268 Z-score of the enrichment rate within one screen of 711 sequences. On the same count and under the same terms, the figure for chain 1 SQSKGKKRNPALKIPAEAFEQP [chain 1 G11A, chain 1 K16A] is 0.278 Z-score of the enrichment rate within one screen of 711 sequences; for chain 1 SQSKGRKRNPGLKIPKEAFEQP [chain 1 K6R] it is 1.9 Z-score of the enrichment rate within one screen of 711 sequences. Still for that read-out and setting: next, chain 1 SQSKGKKRAAGLKIPKEAFEQP [chain 1 N9A, chain 1 P10A]: 0.315 Z-score of the enrichment rate within one screen of 711 sequences; chain 1 SQAKGKKRNPGLAIPKEAFEQP [chain 1 S3A, chain 1 K13A]: -0.319 Z-score of the enrichment rate within one screen of 711 sequences; chain 1 SQSKGKKRAPALKIPKEAFEQP [chain 1 N9A, chain 1 G11A]: 1.02 Z-score of the enrichment rate within one screen of 711 sequences. With chain 1 SQSKGKVRNPGLKIPKEAFEQP [chain 1 K7V], the screen value is 0.633 Z-score of the enrichment rate within one screen of 711 sequences. For chain 1 SQSKGKKRNPMLKIPKEAFEQP [chain 1 G11M], the screen value was 1.24 Z-score of the enrichment rate within one screen of 711 sequences.

As to chain 1 SQSKGKKRNPALKIPKEAFEQP [chain 1 G11A], the screen value is 1.13 Z-score of the enrichment rate within one screen of 711 sequences. Consider chain 1 SQSKGKKRNPRLKIPKEAFEQP [chain 1 G11R], for which the screen value was 1.68 Z-score of the enrichment rate within one screen of 711 sequences. With chain 1 SQSKGKKANPALKIPKEAFEQP [chain 1 R8A, chain 1 G11A], the screen value is -0.109 Z-score of the enrichment rate within one screen of 711 sequences.

In the next experiment the parent is B2.
Regarding chain 1 L12G, the screen value is -0.442 Z-score of the enrichment rate within one screen of 711 sequences. Same read-out and setting: the figure for chain 1 L12D is -0.686 Z-score of the enrichment rate within one screen of 711 sequences; for chain 1 L12Q it is -0.624 Z-score of the enrichment rate within one screen of 711 sequences. On the same count and under the same terms, next, chain 1 L12Y: -0.861 Z-score of the enrichment rate within one screen of 711 sequences; chain 1 L12W: 0.774 Z-score of the enrichment rate within one screen of 711 sequences. As for chain 1 L12S, the screen value is -0.194 Z-score of the enrichment rate within one screen of 711 sequences.

With chain 1 L12K, the screen value is -0.431 Z-score of the enrichment rate within one screen of 711 sequences. The same measure, in the same setting: the figure for chain 1 L12M is 0.011 Z-score of the enrichment rate within one screen of 711 sequences.

Regarding chain 1 L12H, the screen value is -0.33 Z-score of the enrichment rate within one screen of 711 sequences.

For the variant chain 1 P3A, chain 1 L14A, the screen value was 0.559 Z-score of the enrichment rate within one screen of 711 sequences. On the same count and under the same terms, next, chain 1 R7A, chain 1 L10A: -0.455 Z-score of the enrichment rate within one screen of 711 sequences; chain 1 P6A, chain 1 L10A: -0.724 Z-score of the enrichment rate within one screen of 711 sequences; chain 1 P6A, chain 1 L14A: 0.556 Z-score of the enrichment rate within one screen of 711 sequences.

Regarding chain 1 P8A, chain 1 L12A, the screen value is -0.717 Z-score of the enrichment rate within one screen of 711 sequences. For chain 1 P6N, the screen value is 1.28 Z-score of the enrichment rate within one screen of 711 sequences. The same measure, in the same setting: the figure for chain 1 P6M is 1.27 Z-score of the enrichment rate within one screen of 711 sequences. Still for that read-out and setting: next, chain 1 P6D: 0.975 Z-score of the enrichment rate within one screen of 711 sequences; chain 1 P6Y: 0.933 Z-score of the enrichment rate within one screen of 711 sequences; chain 1 P6I: 1.35 Z-score of the enrichment rate within one screen of 711 sequences. Same read-out and setting: the figure for chain 1 P6G is 0.655 Z-score of the enrichment rate within one screen of 711 sequences; for chain 1 P6K it is 1.52 Z-score of the enrichment rate within one screen of 711 sequences.

As for chain 1 Q4C, the screen value was 1.41 Z-score of the enrichment rate within one screen of 711 sequences.

Take chain 1 Q4V: the screen value is 1.56 Z-score of the enrichment rate within one screen of 711 sequences. Consider chain 1 Q4M, for which the screen value was 1.12 Z-score of the enrichment rate within one screen of 711 sequences. The same measure, in the same setting: the figure for chain 1 Q4K is 1.91 Z-score of the enrichment rate within one screen of 711 sequences; for chain 1 Q4N it is 1.28 Z-score of the enrichment rate within one screen of 711 sequences; for chain 1 Q4H it is 1.59 Z-score of the enrichment rate within one screen of 711 sequences. Regarding chain 1 Q4R, the screen value is 2 Z-score of the enrichment rate within one screen of 711 sequences. As for chain 1 Q4D, the screen value is 0.92 Z-score of the enrichment rate within one screen of 711 sequences. With chain 1 Q4E, the screen value is 1.4 Z-score of the enrichment rate within one screen of 711 sequences.

Regarding chain 1 Q4G, the screen value is 1.26 Z-score of the enrichment rate within one screen of 711 sequences. Still for that read-out and setting: next, chain 1 Q4S: 2.02 Z-score of the enrichment rate within one screen of 711 sequences; chain 1 Q4W: 1.2 Z-score of the enrichment rate within one screen of 711 sequences; chain 1 Q11A: 1.44 Z-score of the enrichment rate within one screen of 711 sequences. Same read-out and setting: the figure for chain 1 Q11S is 1.45 Z-score of the enrichment rate within one screen of 711 sequences; for chain 1 Q11F it is 2.16 Z-score of the enrichment rate within one screen of 711 sequences; for chain 1 Q11M it is 1.43 Z-score of the enrichment rate within one screen of 711 sequences. The same measure, in the same setting: the figure for chain 1 Q11V is 1.38 Z-score of the enrichment rate within one screen of 711 sequences. For chain 1 Q11R, the screen value is 1.59 Z-score of the enrichment rate within one screen of 711 sequences.

Consider chain 1 Q11P, for which the screen value was 0.901 Z-score of the enrichment rate within one screen of 711 sequences. Still for that read-out and setting: next, chain 1 Q11D: 1.71 Z-score of the enrichment rate within one screen of 711 sequences; chain 1 P3A, chain 1 P13A: 1.51 Z-score of the enrichment rate within one screen of 711 sequences; chain 1 L12A, chain 1 L14A: -0.584 Z-score of the enrichment rate within one screen of 711 sequences. As for chain 1 R7W, the screen value is 0.391 Z-score of the enrichment rate within one screen of 711 sequences. As to chain 1 R7D, the screen value was -0.584 Z-score of the enrichment rate within one screen of 711 sequences. As to chain 1 R7H, the screen value is 0.435 Z-score of the enrichment rate within one screen of 711 sequences. Still for that read-out and setting: next, chain 1 R7S: -0.155 Z-score of the enrichment rate within one screen of 711 sequences; chain 1 L10A, chain 1 Q11A: -0.534 Z-score of the enrichment rate within one screen of 711 sequences.

chain 1 T9A, chain 1 L10A: the screen value was -0.519 Z-score of the enrichment rate within one screen of 711 sequences.
